Results reported in FireProtDB (doi:10.1093/protein/12.7.581).
Several values for one entry are separate records, joined by “and”; a condition that tells them apart may be missing. Equal values may be shown once.

B1: Alpha-lactalbumin, P00711 (parent)
chain: MMSFVSLLLVGILFHATQAEQLTKCEVFRELKDLKGYGGVSLPEWVCTTFHTSGYDTQAIVQNNDSTEYGLFQINNKIWCKDDQNPHSSNICNISCDKFLDDDLTDDIMCVKKILDKVGINYWLAHKALCSEKLDQWLCEKL

Variants of: B1
Settings: Bos taurus; pH 7.4; Thermal; CD; Tris-HCl 20 mM; CaCl2 1 mM; reversible: yes(>95%); structure 1HFZ; whole UniProt chain shown

Variant	Tm	change of melting temperature, mutant - wild type (higher = more stable) [°C]	ddG of mutation (higher = less stable) [kcal/mol]	unfolding enthalpy (van 't Hoff) [kcal/mol]
Q136A	52.1 °C and 56.2 °C	-4.1	0.96	73.4
Y122P	55.1 °C and 56.2 °C	-1.1	0.22	62.1
Y122A		-10.7	2.39	64.3
L129E	55.1 °C and 56.2 °C	-1.1	0.19	58.6
L129R	58.1 °C and 56.2 °C	1.9	-0.43	76.5
L129H		6.3	-1.39	77.4
A125S		-6.1	1.05	51.6
H126Y	55.2 °C and 56.2 °C	-1	0.19	62.9
H126W		-8.7	1.72	57.8
H126A	52.1 °C and 56.2 °C	-4.1	0.79	60.5
W123Y	56.2 °C		2.44	
H51Y	56.5 °C	0.3		73.6
H51A		-11.6	2.13	50.4
W137Y		-5.4	1.17	67.2
W137H	52.9 °C and 56.2 °C	-3.3	0.6	56.2
I78W	51.7 °C and 56.2 °C	-4.5	0.93	65
K133E	53 °C	-3.2		62.9
K133N		10.7	-2.65	91.3
K133Q	53.5 °C and 56.2 °C	-2.7	0.6	69.5
Q73A	54.3 °C and 56.2 °C	-1.9	0.41	67.6
V61G		-5.2	1.15	68.6
V61A	51.7 °C and 56.2 °C	-4.5	0.93	64.3
V61N	55.1 °C	-1.1		67.2
